Measured values taken from patent US9751932B2, “Anti-big-endothelin-1 (big-ET-1) antibodies and uses thereof” (Regeneron Pharmaceuticals, Inc., priority 2012, dated 2017).
Substitutions are numbered along the chain they refer to. “Also recorded” adds a separate entry of the source.

Experiments:
[1] = biological target: T1, mouse big-ET-1 (SEQ ID NO:437) (Mus musculus, UniProt P22387); experiment: Surface plasmon resonance (Biacore) binding, mAb capture format, 37° C.
T1 sequence (P22387 53-91 limits assumed): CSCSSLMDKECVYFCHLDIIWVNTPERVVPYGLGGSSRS
Description: (§1) Measurements were conducted on a T200 Biacore instrument (Biacore Life Sciences division of GE Healthcare, Piscataway, N.J.). […] Different concentrations of small-ET-1 (SEQ ID NO:435), human big-ET-1 (SEQ ID NO:434) or mouse big-ET-1 (SEQ ID NO:437) were injected over the anti-big-ET-1 captured surfaces at a flow rate of 100 μl/min. Peptide binding was monitored for 3 min while dissociation of mAb-bound peptide was monitored for 4 min in HBST running buffer (0.01 M HEPES pH 7.4, 0.15 M NaCl, 3 mM EDTA, 0.005% v/v Surfactant P20). Kinetic association (ka) and dissociation (kd) rate constants were determined by processing and fitting the data to a 1:1 binding model using Scrubber 2.0 curve fitting software.

[2] = biological target: T2, human big-ET-1 (SEQ ID NO:434) (Homo sapiens, UniProt P05305); experiment: as above; conditions: for ka / kd: analyte human big-ET-1, mAb capture
T2 sequence (P05305 53-90 limits assumed): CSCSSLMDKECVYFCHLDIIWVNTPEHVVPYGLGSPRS
Description: as §1

[3] = biological target: T2, human big-ET-1 (SEQ ID NO:434); experiment: MALDI-TOF detection of C-term peptide product from cleavage of big-ET-1 by mouse ECE-1; type: biochemical; parameters: purchased R&D Systems (mouse ECE-1 only)
Source text: Matrix Assisted Laser Desorption Ionization Time of Flight (MALDI-TOF) mass spectrometry was used to determine if selected anti-big-ET-1 antibodies could block the conversion of human big-ET-1 (SEQ ID NO:434) or mouse big-ET-1 (SEQ ID NO:437) into its respective peptides in the presence of mouse endothelin converting enzyme 1 (ECE-1). Human big-ET-1 is specifically cleaved by mECE-1 at Trp-21/Val-22 forming both biologically active small-ET-1 (SEQ ID NO:435; MH^+ 2474) and a non-active C-term product (amino acids 22-38 of SEQ ID NO:434; MH^+ 1809). Mouse big-ET-1 is cleaved at Trp-21/VaI-22 into small-ET-1 (SEQ ID NO:435; MH^+ 2474) and its non-active C-term product (amino acids 22-39 of SEQ ID NO:437; MH^+ 1875). The appearance or absence of these masses, in the presence of antibody, can be monitored by MALDI-TOF. In the example below, the presence or absence of the C-term products served as an indicator for big-ET-1 cleavage since these peptides ionize more efficiently than small-ET-1 (SEQ ID NO:435; MH^+ 2474), thereby yielding a more sensitive readout.
Briefly, human or mouse big-ET-1 (0.5 μM) was mixed with antibody (2.5 μM), in phosphate buffered saline (PBS), at a 1:5 molar ratio (big-ET-1:mAb). After a 1-hr incubation (25° C.), mouse ECE-1 (R&D Systems) was added at 40 nM and the solution was placed at 37° C. Aliquots for mass spectrometry analysis were taken at 0, 15, 30 and 60 minutes. Each aliquot was desalted via C18 Ziptip (Millipore) and analyzed in reflextron-positive mode using a Bruker Ultraflextreme MALDI-TOF instrument (Bruker Daltonics).

[4] = system: C57BL/6 mice challenged with human big-ET-1 peptide; experiment: Mean arterial pressure changes after human big-ET-1 challenge in catheterized mice; type: in vivo, mouse
Description: The purpose of this Example was to evaluate the ability of an exemplary anti-big-ET-1 antibody (H2M6490N) to block […] increases in arterial pressure. Mice that had been previously infused with either blocking anti-big-ET-1 antibody or isotype control were challenged with big-ET-1 peptide. Changes in arterial pressure stemming from either big-ET-1 endogenous conversion to small-ET-1, or having its conversion blocked by circulating anti-big-ET-1 antibody, were measured. To facilitate real time measurements of arterial pressure during these experiments, mice were catheterized using standard protocols.
Briefly, naïve Taconic C57BL/6 mice (8-10 weeks of age) were anesthetized with isoflurane and the skin overlying the carotid artery and jugular vein was cut. Both the right jugular vein and left carotid artery were isolated, taking care not to damage the Vagus nerve or other blood vessels. Using standard techniques, the jugular vein was retracted and a 32-gauge needle (bent at a 90° angle) was used to puncture the vein for insertion of a saline-filled jugular vein catheter. The left carotid artery was then isolated and a Millar Micro-Tip® catheter was introduced using standard protocols. During all procedures a temperature probe was used to monitor animal body temperature, which was kept around 36.5° C. using a Gaymar heated water circulating pad. The above procedures allowed real-time pressure measurements (systolic pressure, diastolic pressure, mean arterial pressure, and body temperature) to be recorded during all big ET-1 challenge experiments.
In the first study, 150 μg (˜2 mg/kg; 1×10^−9 Moles) of H2M6490N or isotype control mAb was injected i.v. using the jugular vein port followed by a bolus of saline to flush the catheter. This caused a slight and transient drop in pressure that returned to baseline and established the T=0 for the experiment.
In a second experiment, the same experimental protocol was utilized except that H2M6490N (˜2 mg/kg; 1×10^−9 Moles) was injected subcutaneously (s.c.) into the mice 24 hrs before challenge with human big-ET-1 peptide.

[5] = biological target: T3, human big-ET-1 (cleavage by human ECE-1) (Homo sapiens, UniProt P05305); experiment: NFAT luciferase reporter assay (293/ETaR/NFAT-Luc cells) for blocking of ECE-1-mediated cleavage; type: cell-based; conditions: read-out: Blocking IC50 10 nM hBig-ET-1 + 3 nM hECE1; human Fc mAbs (Table 5)
T3 sequence (P05305 53-90 limits assumed): T2 sequence (P05305 53-90 limits assumed)
Description: (§2) Briefly, HEK293 cell lines were generated to stably express full-length human endothelin receptor type A (ETaR) along with a luciferase reporter element [NFAT (4×)-luciferase]. A single clone was isolated and maintained in 10% FBS, DMEM, NEAA, Pen/Strep, and 500 μg/ml G418 and 100 μg/ml hygromycin B.
(§3) Both human and mouse big-ET-1 blocking experiments were allowed to incubate (37° C.; 5% CO2) overnight. The next morning these solutions were added to the 293/ETaR/NFAT-Luc cells (20,000 cells/well) and luciferase activity was detected after 5.5 hrs (37° C.; 5% CO2) using a Victor X plate reader (Perkin Elmer). The amount of luciferase activity observed under these conditions is a proportional representation of the amount of small-ET-1 generated from cleavage of either mouse or human big-ET-1.

[6] = biological target: T4, mouse big-ET-1 (cleavage by mouse ECE-1) (Mus musculus, UniProt P22387); experiment: as above; type: cell-based; conditions: read-out: Blocking IC50 20 nM mBig-ET-1 + 5 nM mECE1; human Fc mAbs (Table 5)
T4 sequence (P22387 53-91): T1 sequence (P22387 53-91 limits assumed)
Description: as §2, §3

B1: H2M6490N: anti-big-ET-1 antibody, mouse IgG2 Fc; HCVR/LCVR SEQ ID NO: 18/26 (antibody, V domains shown)
VH: EVQLLESGGGLVQPGGSLRLSCAASGFTFSSYAMTWVRQAPGKGLECISAISGSGYSTYYADSMKGRFSISRDNSKNTLYLQMNRLRAEDTAVYYCTKGGRILEWLLPFDFWGQGTLVTVSS
VL: DVVMTQSPLSLPVTLGQPASISCRSSQSLVYSDGNTYLIWFQQRPGQSPRRLIYKVSNRDSGVPDRFSGSGSGTDFTLIISRVEAEDVGLYYCMQGTHWPPTFGGGTKVEIK
modifications: mouse IgG2 Fc
- binding to mouse big-ET-1 (in words) [1]: did not show any binding
- Kd ([1]; analyte mouse big-ET-1, mAb capture, KD=kd/ka): > 1000 nM
- binding to human big-ET-1 (in words) [2]: high affinity binding
- ka [2]: 209000 M/s
- kd [2]: 0.00399 s⁻¹
- cleavage of human big-ET-1 by mouse ECE-1 (in words) [3]: no C-term product was detected
- Detection of C-term Peptide Product, 0 min ([3]; Human big-ET-1, mouse ECE-1, 0 min): −
- Detection of C-term Peptide Product, 15 min ([3]; Human big-ET-1, mouse ECE-1, 15 min): −
- Detection of C-term Peptide Product, 30 min ([3]; Human big-ET-1, mouse ECE-1, 30 min): −
- Detection of C-term Peptide Product, 60 min ([3]; Human big-ET-1, mouse ECE-1, 60 min): −
- Mean Pressure Change ([4]; Study 1: antibody 150 μg i.v., time 0 min, cumulative big-ET-1 0.00E+00 Moles): 0 mmHg
- Mean Pressure Change ([4]; Study 1: antibody i.v., time 30 min, cumulative big-ET-1 3.85E−11 Moles, mAb:big-ET-1 26.0): −0.6 ± 2.6 mmHg
- Mean Pressure Change ([4]; Study 1: antibody i.v., time 45 min, cumulative big-ET-1 1.16E−10 Moles, mAb:big-ET-1 8.7): −1.0 ± 3.5 mmHg
- Mean Pressure Change ([4]; Study 1: antibody i.v., time 60 min, cumulative big-ET-1 2.32E−10 Moles, mAb:big-ET-1 4.3): 4.0 ± 4.7 mmHg
- Mean Pressure Change ([4]; Study 1: antibody i.v., time 75 min, cumulative big-ET-1 4.66E−10 Moles, mAb:big-ET-1 2.1): 18.2 ± 9.6 mmHg
- Mean Pressure Change ([4]; Study 1: antibody i.v., time 90 min, cumulative big-ET-1 8.16E−10 Moles, mAb:big-ET-1 1.2): 32.5 ± 20.8 mmHg
- Mean Pressure Change ([4]; Study 1: antibody i.v., time 105 min, cumulative big-ET-1 1.28E−09 Moles, mAb:big-ET-1 0.8): 25.1 ± 8.3 mmHg
- Mean Pressure Change ([4]; Study 1: antibody i.v., time 120 min, cumulative big-ET-1 1.87E−09 Moles, mAb:big-ET-1 0.5): −15.4 ± 8.2 mmHg
- Mean Pressure Change ([4]; Study 2: antibody s.c. ~24 hr before challenge, time 0 min, cumulative big-ET-1 0.00E+00 Moles): 0 mmHg
- Mean Pressure Change ([4]; Study 2: antibody s.c. ~24 hr before, time 30 min, cumulative big-ET-1 3.85E−11 Moles, ratio 26.0): 1.7 mmHg
- Mean Pressure Change ([4]; Study 2: antibody s.c. ~24 hr before, time 45 min, cumulative big-ET-1 1.16E−10 Moles, ratio 8.7): 7.6 mmHg
- Mean Pressure Change ([4]; Study 2: antibody s.c. ~24 hr before, time 60 min, cumulative big-ET-1 2.32E−10 Moles, ratio 4.3): 14.9 mmHg
- Mean Pressure Change ([4]; Study 2: antibody s.c. ~24 hr before, time 75 min, cumulative big-ET-1 4.66E−10 Moles, ratio 2.1): 52.1 mmHg
- Mean Pressure Change ([4]; Study 2: antibody s.c. ~24 hr before, time 90 min, cumulative big-ET-1 8.16E−10 Moles, ratio 1.2): 45.8 mmHg
- Mean Pressure Change ([4]; Study 2: antibody s.c. ~24 hr before, time 105 min, cumulative big-ET-1 1.28E−09 Moles, ratio 0.8): 12.0 mmHg
- arterial pressure response to human big-ET-1 challenge (in words) ([4]; ~2 mg/kg antibody, 30 min (i.v.) or 24 hr (s.c.) before challenge): maintained baseline mean arterial pressure until the amount of human big-ET-1 peptide approached the molar equivalent of antibody on board; also recorded: maintained normal arterial pressures longer than those mice that were treated with isotype control antibody; also recorded: effective in inhibiting endothelin-1-mediated elevation in arterial pressure in vivo

B2: H4H6490N2: anti-big-ET-1 antibody, human IgG4 Fc; HCVR/LCVR SEQ ID NO: 402/410 (antibody, V domains shown)
VH: B1 VH with C47W
VL: B1 VL
modifications: human IgG4 Fc
- IC50 [5]: > 100 nM
- IC50 [6]: > 100 nM

B3: H4H6492N2: anti-big-ET-1 antibody, human IgG4 Fc; HCVR/LCVR SEQ ID NO: 418/426 (antibody, V domains shown)
VH: EVQLVESGGGLVKPGGSLRVSCVASGFTFSNAWMTWVRQTPGKGLEWVGRIKSRTDGGTVDYVAPVKGRFTISRDDSKNTLYLQMNSLKAEDTAVYYCRADLDYWGQGTLVTVSS
VL: DVVMTQSPLSLPVSLGQPASISCRSSQSLVHSDGITYLNWFQQRPGQSPRRLIYKISNRDSGVPDRFSGSGSGTDFTLKFSRVEAEDVGVYFCMQGTHWPYTFGQGTKLEIK
modifications: human IgG4 Fc
- IC50 [6]: > 100 nM
- ka [2]: 424000 M/s
- kd [2]: 0.0297 s⁻¹
